Square brackets hold non-standard residues; d marks the D form. Ends that are not written are not given here. sY = N[C@@H](Cc1ccc(OS(=O)(=O)O)cc1)C(=O)O
Legend:
[1] = molecular target: T1, VEGF165 (vascular endothelial cell growth factor, 165 isoform), recombinant from E. coli, refolded dimer (human, UniProt P15692-4 27-191, Example 1: about 4 AMCA coumarins per VEGF165, sites not given; Example 3 screen: biotinylated, sites not given); assay: on-bead colorimetric screen, about 0.25 nM biotinylated VEGF165 with 1 equivalent of heparin
T1 construct: Tags from the pRSET vector are not mentioned; also called coumerin-VEGF; coumarin-labeled VEGF165
T1 sequence (P15692 other isoform, or with tags, fused parts or gaps limits assumed): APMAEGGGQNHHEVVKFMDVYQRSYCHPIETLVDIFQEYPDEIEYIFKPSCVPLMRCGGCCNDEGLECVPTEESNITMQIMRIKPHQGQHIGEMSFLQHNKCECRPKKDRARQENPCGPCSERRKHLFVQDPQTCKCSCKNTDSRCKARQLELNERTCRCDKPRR
Protocol: The resin was rinsed with TBS (5×) and 200 μL of 5-bromo-4-chloro-3-indoylphosphate p-toluidine salt/nitro blue tetrazolium chloride (BCIP/NBT) reagent was added to develop a blue/black color where the streptavidin alkaline phosphatase was present. Nonspecific adsorption of the streptavidin alkaline phosphatase was detected as blue/black stained beads. After 15 minutes, the resin was rinsed with TBS (5×) prior to adding 100 μL of about 0.25 nM of biotinylated VEGF₁₆₅ in the presence or absence of 1 or 10 equivalents of heparin sodium salt (isolated from porcine intestinal mucosa) in 400 μL of blocking buffer. The mixture was shaken overnight, the solution removed, the resin washed with TBS (6×), and 1 mL streptavidin alkaline phosphatase (diluted 1:1000 from a 1 mg/mL solution) was added. The streptavidin alkaline phosphatase preferentially attached to beads having VEGF since the VEGF was attached to biotin, which is a ligand for the streptavidin on the streptavidin alkaline phosphatase. After 2 h the solution was removed and rinsed with TBS (5×) and Fast Red substrate (PIERCE) was added to make the presence of the alkaline phosphatase visible by making a red color. Positive beads were those that were stained red. The red beads were selected, and subjected to 8M guanidine-HCl, pH=1.4 for 20 minutes prior to rinsing with H20 (3×) and DMF until residual color was removed. […]

[2] = molecular target: T1, VEGF165 (vascular endothelial cell …); assay: SPR

Binder | binding result [1] | Kd [2] [nM]
[sY][sY]GG[sY]D[sY]GGGG-{PEGA resin} (not fully specified (N-terminus); printed as Y(SO3)Y(SO3)GGY(SO3)DY(SO3)) [Y(SO3)Y(SO3)GGY(SO3)DY(SO3)-Gly-Gly-Gly-Gly-PEGA bead] | binds | 
S[sY]D[sY]G (not fully specified (C-terminus); printed as SY(SO3)DY(SO3)G, Independently synthesized free peptide used in SPR) [SY(SO3)DY(SO3)G] |  | 3100

Other lines, results leading:

binding result [1] | Kd [2] [nM] | Binder
binds |  | F[sY]GG[sY]D[sY]GGGG-{PEGA resin} (not fully specified (N-terminus)) [FY(SO3)GGY(SO3)DY(SO3)-Gly-Gly-Gly-Gly-PEGA bead]
 | 140 | [sY][sY]GG[sY]D[sY]G (not fully specified (N-terminus, C-terminus); printed as Y(SO3)Y(SO3)GGY(SO3)DY(SO3)G, Independently synthesized free peptide used in SPR) [Y(SO3)Y(SO3)GGY(SO3)DY(SO3)G]
